Assay results reported in patent publication US20180230214A1.

Target: biotinylated soluble human CD56 (human) (UniProt P13591)
Test: flow cytometry of 56-28z-LNGFR transduced T cells stained with biotinylated soluble human CD56 (y axis 'sCD56 binding') against LNGFR (x axis). The other quadrants of this panel read 0.56 (upper left), 41.8 (lower left) and 33.1 (lower right). The sCD56 signal rises with LNGFR to about 10^3. The untransduced T cell control panel reads 0.57 (upper left), 0.27 (upper right), 97.6 (lower left) and 1.61 (lower right).

quadrant number, cells positive for sCD56 binding and for LNGFR (upper right quadrant): 24.5%
Substance: 56-28z CAR (scFv of murine anti-human CD56 antibody N901 fused to CD28/CD3z domains)
